From patent publication US20100331250A1

Tests used:
[1] = target: human VEGF165 (human) (UniProt P15692); assay: cell-based or functional assay
[2] = target: human VEGF165 (human) (UniProt P15692); assay: quantitative ELISA; serial concentrations of fusion protein mixed with 40 pM human VEGF165, detection with anti-human IgG Fc-HRP

UniProt P15692, sequence (P15692 other isoform, or with tags, fused parts or gaps limits assumed): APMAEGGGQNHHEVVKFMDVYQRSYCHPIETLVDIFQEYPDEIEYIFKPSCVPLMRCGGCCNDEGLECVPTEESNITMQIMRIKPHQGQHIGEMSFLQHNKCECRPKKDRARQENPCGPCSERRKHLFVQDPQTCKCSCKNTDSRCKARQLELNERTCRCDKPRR

VEGF-Trap (Fc fusion)
growth activity of VEGF on HUVEC (CCK-8, endothelial cell growth assay) [1]: 28 pM | inhibitory activity against VEGF (HUVEC growth assay) [1]: 14 pM | EC50 [2]: 0.136 µg/mL
